In publication PMC11931385, “Structural and functional analysis of cancer-associated missense variants in the retinoblastoma protein pocket domain” (The Journal of Biological Chemistry, 2025):
Positions count from the first letter of the chain named. Names may count otherwise. No end group written: not given here. TMR = tetramethyl rhodamine dye

B1: TMR-E2F1^TD, peptide of the E2F1 transactivation domain (peptide)
peptide: {TMR}-GEGIRDLFDCDFGDLTPLD
notes: also called E2F^TD; source: synthetic peptide, bought: GenScript
B2: TMR-E7^LxCxE, LxCxE peptide of the E7 oncoprotein from HPV (peptide)
peptide: DLYCYEQLN
modifications: also: TMR label, position not given here
notes: source: synthetic peptide, bought: GenScript

Assays:
Experiment in all cases: fluorescence polarisation; 37 °C, after the 25 °C reading ramped over 7 min to 37 °C and 2 min incubation; unlabeled Rb^P against 1.5 nM TMR-E2F1^TD or 7.5 nM TMR-E7^LxCxE; 25 mM Tris pH 8.0, 200 mM NaCl, 1 mM DTT, 0.1% Tween-20; apparent Kd
Details in all cases: both partners purified
[1] = target: T1, Rb^P S648T (human, UniProt P06400 380-788, S648T)
T1 construct: also called variant 46
T1 sequence (looked up): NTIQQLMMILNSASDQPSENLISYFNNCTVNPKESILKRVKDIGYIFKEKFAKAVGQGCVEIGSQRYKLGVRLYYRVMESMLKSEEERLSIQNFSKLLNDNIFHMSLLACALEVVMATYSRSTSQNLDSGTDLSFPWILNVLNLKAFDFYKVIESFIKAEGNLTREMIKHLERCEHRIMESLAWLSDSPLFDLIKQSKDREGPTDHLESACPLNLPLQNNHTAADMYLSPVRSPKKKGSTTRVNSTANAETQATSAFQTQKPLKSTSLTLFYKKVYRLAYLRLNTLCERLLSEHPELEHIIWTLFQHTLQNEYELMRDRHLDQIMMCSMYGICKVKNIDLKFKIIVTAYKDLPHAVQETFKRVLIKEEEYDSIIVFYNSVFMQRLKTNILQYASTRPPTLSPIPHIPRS

[2] = target: T2, Rb^P R621C (human, UniProt P06400 380-788, R621C)
T2 construct: also called variant 41
T2 sequence (looked up): T1 sequence (looked up) with R242C, T269S

[3] = target: T3, Rb^P P595L (human, UniProt P06400 380-788, P595L)
T3 construct: also called variant 35
T3 sequence (looked up): T1 sequence (looked up) with P216L, T269S

[4] = target: T4, Rb^P R451H (human, UniProt P06400 380-788, R451H)
T4 construct: also called variant 6
T4 sequence (looked up): T1 sequence (looked up) with R72H, T269S

[5] = target: T5, Rb^P S463L (human, UniProt P06400 380-788, S463L)
T5 construct: also called variant 10
T5 sequence (looked up): T1 sequence (looked up) with S84L, T269S

Binder	Kd [1] [nM]	Kd [2] [nM]	Kd [3] [nM]	Kd [4] [nM]	Kd [5] [nM]
B1	58	43	83	56	41
B2	14	30	32	22	17
